The target of this experiment is human platelet actin (non-muscle actin), used as monomeric ATP-G-actin or as pre-formed F-actin (human) (UniProt P60709). The experiment is described as follows: co-sedimentation.

For “FLAG-tagged SHTN1L, full length, purified (from UniProt Q8K2Q9 1-631) (natural protein)”, the Kd (usually a measure of binding affinity in units of concentration) turned out to be 164 nM and the percent remaining in supernatant (not pelleted with F-actin) was 50%.
Consider “FLAG-tagged SHTN1L lacking CCD-I (1L-ΔCCD-I), purified (domain or fragment)”, for which the Kd was 21.9 nM.

The record behind these values is publication PMC7418779.
